# Results from patent US20130078188.
# T1: Cy7-NH-e9-c(S-Peg12) oDPRSFL-r9-c(Cy5)-CONH2 (5, …)
# T1 chain: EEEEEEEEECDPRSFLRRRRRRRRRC
# T2: Cy7-NH-e9-c(S-Peg12)oPLGC(Me)AG-r9-c(Cy5)-CONH2 (20, …(Me)AG)
# T2 chain: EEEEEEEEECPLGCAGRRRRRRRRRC
# T3: Cy7-NH-e9-c(S-Peg12) oPPRSFL-r9-c(Cy5)-CONH2 (10, …)
# T3 chain: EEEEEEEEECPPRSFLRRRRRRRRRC
# B1: plasmin (protein)
# chain: KVYLSECKTGNGKNYRGTMSKTKNGITCQKWSSTSPHRPRFSPATHPSEGLEENYCRNPDNDPQGPWCYTTDPEKRYDYCDILECEEECMHCSGENYDGKISKTMSGLECQAWDSQSPHAHGYIPSKFPNKNLKKNYCRNPDRELRPWCFTTDPNKRWELCDIPRCTTPPPSSGPTYQCLKGTGENYRGNVAVTVSGHTCQHWSAQTPHTHNRTPENFPCKNLDENYCRNPDGKRAPWCHTTNSQVRWEYCKIPSCDSSPVSTEQLAPTAPPELTPVVQDCYHGDGQSYRGTSSTTTTGKKCQSWSSMTPHRHQKTPENYPNAGLTMNYCRNPDADKGPWCFTTDPSVRWEYCNLKKCSGTEASVVAPPPVVLLPDVETPSEEDCMFGNGKGYRGKRATTVTGTPCQDWAAQEPHRHSIFTPETNPRAGLEKNYCRNPDGDVGGPWCYTTNPRKLYDYCDVPQCAAPSFDCGKPQVEPKKCPGRVVGGCVAHPHSWPWQVSLRTRFGMHFCGGTLISPEWVLTAAHCLEKSPRPSSYKVILGAHQEVNLEPHVQEIEVSRLFLEPTRKDIALLKLSSPAVITDKVIPACLPSPNYVVADRTECFITGWGETQGTFGAGLLKEAQLPVIENKVCNRYEFLNGRVQSTELCAGHLAGGTDSCQGDSGGPLVCFEKDKYILQGVTSWGLGCARPNKPGVYVRVSRFVTWIEGVMRNN
# What was measured:
# [1] = molecular target: T1, Cy7-NH-e9-c(S-Peg12) …
# [2] = molecular target: T2, Cy7-NH-e9-c(S-Peg12)oPLGC(Me)AG-r9-c(Cy5 …)
# [3] = molecular target: T3, Cy7-NH-e9-c(S-Peg12) …
protein,measurement,setting,value
B1,kcat/Km,[1],10000 M⁻¹ s⁻¹
same,"peptide cleavage, SDS-PAGE with Cy5/Cy7 ratio imaging",[2],not cleaved by any of the pro-coagulation enzymes
same,"kcat/Km, fold lower than for thrombin",[3],14.3 fold lower kcat/Km
